Results taken from patent US20220177587A1, “METHODS AND USES OF VARIANT CD80 FUSION PROTEINS AND RELATED CONSTRUCTS” (Alpine Immune Sciences, Inc., priority 2018, published 2022).

B1: E35D/M47V/N48K/V68M/K89N: variant CD80 IgV-Fc, IgV SEQ ID NO:465 (protein)
chain: VIHVTKEVKEVATLSCGHNVSVEELAQTRIYWQKDKKMVLTMMSGDVKIWPEYKNRTIFDITNNLSIMILALRPSDEGTYECVVLKYENDAFKREHLAEVTLSVKAD
B2: E35G/K54E/A71D/L72P: variant CD80 IgV-Fc, IgV SEQ ID NO:219 (protein)
chain: VIHVTKEVKEVATLSCGHNVSVEELAQTRIYWQKGKKMVLTMMSGDMNIWPEYENRTIFDITNNLSIVILDPRPSDEGTYECVVLKYEKDAFKREHLAEVTLSVKAD
B3: E35D/M47L: variant CD80 IgV-Fc, IgV SEQ ID NO:208 (protein)
chain: VIHVTKEVKEVATLSCGHNVSVEELAQTRIYWQKDKKMVLTMMSGDLNIWPEYKNRTIFDITNNLSIVILALRPSDEGTYECVVLKYEKDAFKREHLAEVTLSVKAD

Assays:
huCTLA4 [1] = target: T1, huCTLA4 (Homo sapiens, UniProt P16410); experiment: Antagonism of CD80/CTLA-4 binding on CHO cells expressing CTLA-4; parameters: Full-length mammalian surface expression constructs for each of human CTLA-4, PD-L1, and CD28; conditions: 25 nM fluorochrome-conjugated wild-type CD80-Fc; FIG. 21
T1 sequence (P16410 36-223): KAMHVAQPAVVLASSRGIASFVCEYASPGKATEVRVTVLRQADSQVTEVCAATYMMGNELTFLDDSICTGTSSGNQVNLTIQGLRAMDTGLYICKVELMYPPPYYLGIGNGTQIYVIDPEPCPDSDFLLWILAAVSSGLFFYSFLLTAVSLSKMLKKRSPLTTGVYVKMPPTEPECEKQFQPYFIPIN
Experimental: After washing, cells were incubated with 25 nM fluorochrome-conjugated wild-type CD80-Fc. Bound fluorescent competitor protein was detected and measured by flow cytometry.
(§1) The multivalent variant CD80 IgSF domain fusion proteins were assessed to test for blocking of the PD-L1/PD-1 and CTLA-4/CD80 interaction performed substantially as described in Example 15. CHO/OKT3/PD-L1 and CHO/CTLA-4 cells were counted and plated at 100,000 cells/well and then incubated with fluorescently conjugated PD-1-Fc and CD80-Fc. Exemplary multivalent variant CD80 IgSF domain fusion proteins were incubated with the cells for 30 minutes. […] Cells were washed and incubated with 100 nM fluorescently conjugated PD-1-Fc and CD80-Fc competitor for 30 minutes. Cells were then washed and samples were acquired on a flow cytometer and MFIs of the fluorescently labeled molecules were determined.

[2] = test system: primary human pan T cells; experiment: Cytokine production following PD-L1-dependent costimulation; type: cell-based; conditions: mitomycin-c treated K562/OKT3/PDL1 aAPC; FIG. 6
CD28 [3] = target: T2, CD28 (Homo sapiens, UniProt P10747); experiment: Jurkat/IL2 + K562/OKT3/PD-L1 reporter assay; type: cell-based; parameters: host or cells: Jurkat cells expressing an IL-2-luciferase reporter
CD28 [4] = target: T2, CD28; experiment: Flow binding to Jurkat/IL2 reporter cells (CD28); parameters: host or cells: Jurkat cells expressing an IL-2-luciferase reporter; conditions: Table E19; Jurkats (CD28); 33.3 nM
In short: (§2)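 Flow cytometry on transfected CHO cells or CD28+ Jurkat/IL2 reporter cells, blocked 20 min in PBS/1% BSA/0.1% azide. Fusion protein 45 min on ice; PE anti-human Fc 1:150, 30 min on ice; fixed in 2% formaldehyde. Read-out PE MFI, EC50 calculated.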

PD-L1/PD-1 interaction = target: T3, PD-L1/PD-1 interaction (Homo sapiens, UniProt Q9NZQ7); experiment: PD-L1/PD-1 binding and blocking on CHO/PD-L1 cells; conditions: fluorescently conjugated PD-1-Fc; FIG. 7
T3 construct: expressed in transfected cells
T3 sequence (Q9NZQ7 19-290): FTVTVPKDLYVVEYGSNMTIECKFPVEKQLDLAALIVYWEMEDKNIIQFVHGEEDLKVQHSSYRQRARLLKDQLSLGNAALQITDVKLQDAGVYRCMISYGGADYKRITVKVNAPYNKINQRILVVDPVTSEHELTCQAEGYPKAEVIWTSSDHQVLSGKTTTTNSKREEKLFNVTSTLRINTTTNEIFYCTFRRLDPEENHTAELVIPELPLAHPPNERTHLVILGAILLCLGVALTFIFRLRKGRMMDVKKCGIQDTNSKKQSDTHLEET
Experimental: Binding of selected immunomodulatory fusion proteins to cells expressing PD-L1 was assessed to test for blocking of the PD-L1/PD-1 interaction. […] Samples were acquired on a flow cytometer and MFIs of the fluorescently labeled PD-1 were determined by Flowjo software analysis.
as §1

huCTLA4 [5] = target: T1, huCTLA4; experiment: Flow binding to CHO cells stably expressing CTLA4; parameters: huCTLA4 and huPD-L1, full-length mammalian surface expression constructs were generated; expressed in transfected cells; host or cells: CHO cells, lentiviral transduction, sorted to >98% purity; conditions: Table E19; CHO cells stably expressing CTLA4; 33.3 nM
In short: as §2

CD28 [6] = target: T2, CD28; experiment: CD28 costimulation via Fc receptor or PD-L1 dependent cross-linking (Jurkat/IL2 + K562/OKT3 +/- PD-L1); type: cell-based; parameters: host or cells: Jurkat cells expressing an IL-2-luciferase reporter; conditions: K562/0KT3 aAPC, luciferase signal
Experimental: In a further experiment, CD28 costimulation was assessed for variant CD80-IgV-Fc fusion proteins, where the Fc was an IgG1 Fc (e.g. SEQ ID NO:1517) capable of mediating effector activity via binding to Fc receptors (FcR). The experiment was carried out as described in part A above, except CD32-expressing K562 cells stably transduced with OKT3 (K562/OKT3) or OKT3 and PD-L1 (K562/OKT3/PD-L1) were used instead of the CHO/OKT3 and CHO/OKT3/PD-L1 cells, and the results are depicted in Table E9.

CD28 [7] = target: T2, CD28; experiment: Jurkat/IL2 + CHO/OKT3 +/- PD-L1 reporter assay: PD-L1-dependent CD28 costimulation; type: cell-based; parameters: host or cells: Jurkat cells expressing an IL-2-luciferase reporter; conditions: luciferase signal
In short: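 Jurkat reporter cells (100,000/well) preincubated 15 min at room temperature with test protein, then cocultured 5 h at 37 °C with CHO aAPCs bearing anti-CD3 scFv (OKT3) with or without PD-L1. Luciferase luminescence (RLU) read after lysis-substrate addition.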

Pan T cells = experiment: Primary T cell stimulation assay with K562/OKT3 +/- PD-L1 (IL-2, IFN-gamma, proliferation); type: cell-based, human; conditions: 1, 10, 100 nM; 72 hr
Experimental: IFN-gamma, IL-2 and proliferation were determined after 72 hr. incubation.

MC38 hPD-L1 tumor cells = experiment: MC38 hPD-L1 tumor model in C57BL/6 mice; type: in vivo, mouse
Experimental: Mouse MC38 tumor cells were stably transfected with human PD-L1 (MC38 hPD-L1) and implanted subcutaneously into C57BU6 mice. […] Tumor volume was tracked over time.
70 female C57CL/6 mice, containing similar tumor volumes of approximately 50-51 mm^3, following implantation of MC38 hPD-L1 tumor cells, were staged and divided into 5 treatment groups containing 14 mice each. […] Tumor volumes were measured on days 7, 10, and 12. On day 13, 5 animals were sacrificed for analysis as described in the sections below. Tumor measurements resumed for the remaining 9 mice for each group on days 17, 20 and 27. On days 26, 28, and 31, the animals in Group 1 (Fc isotype control) received an intratumoral injection of 100 μg E35D/M47L CD80-IgV-Fc.
95 female C57BU6 mice were implanted with MC38 hPD-L1 tumor cells. The tumors were staged on Day 7, and 77 mice with similar tumor volumes of approximately 60 mm^3 were divided into 7 treatment groups containing 11 mice each.
On day 49, tumor-free mice, from Groups 3, 4, 6, and 7, and 2 naïve C57CL/6 mice were re-challenged with an additional injection of hPD-L1 MC38 cells. Tumor volumes were measured on days 56, 59, and 63. The results are depicted in FIG. 13. […] At day 59, 8/8 mice from Group 3, 1/2 mice from Group 4, 1/1 mouse from Group 6, and 2/2 mice from Group 7 were tumor-free, and by day 63, all mice in Group 3, Group 4, Group 6, and Group 7 were tumor-free.
75 animals were staged into 3 treatment groups 7 days after implantation with hPD-L1 MC38 tumor cells. […] Tumor volumes were measured every 3-4 days, from Day 11 until Day 35. 3 days after the 1st dose, 2nd dose and 3rd dose, 4 mice from each group were sacrificed for tumor and LN analyses, leaving 13 mice for tumor volume measurements throughout the study period.

CD28 [8] = target: T2, CD28; experiment: Jurkat/IL2 reporter assay: blockade of CD28 costimulation (plate-bound anti-CD3/CD86-Fc); type: cell-based; parameters: host or cells: Jurkat cells expressing an IL-2-luciferase reporter; conditions: Table E5; protein diluted to 40 nM before mixing with cells; 5 hours
In short: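 Jurkat cells carrying an IL-2–luciferase reporter were preincubated 15 min at room temperature with CD80-Fc fusion molecules, then added to plates coated overnight with anti-CD3 and CD86-Fc. After 5 h at 37 °C, luciferase luminescence was read with Bio-Glo.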

huPD-L1 = huPD-L1 (Homo sapiens, UniProt Q9NZQ7); experiment: Flow binding to CHO cells stably expressing PD-L1; parameters: huCTLA4 and huPD-L1, full-length mammalian surface expression constructs were generated; expressed in transfected cells; host or cells: CHO cells, lentiviral transduction, sorted to >98% purity; conditions: Table E19; CHO cells stably expressing PD-L1; 33.3 nM
Sequence of huPD-L1 (Q9NZQ7 19-290): as above
In short: as §2

[9] = re-challenged on day 49 with hPD-L1 MC38 cells

Molecule	antagonism of binding of CD80 to CTLA-4 (huCTLA4 [1])	IL-2 secretion in culture supernatants [2]	PD-L1 dependent CD28 costimulation (luciferase activity) (CD28 [3]; IgV-Fc (inert), various concentrations, FIG. 5)	Relative Luciferase Units (RLU), CD80-Fe Cone 50 nM (CD28 [3]; Table E8, K562/OKT3/PD-L1 aAPC, 50 nM) [RLU]	CD28 MFI at 33.3 nM (CD28 [4])	blocking of binding of PD-1 to PD-L1 (PD-L1/PD-1 interaction)	CTLA4 MFI at 33.3 nM (huCTLA4 [5])	CD28 costimulation, FcR Dependent Cross-Linking (No PD-L1), 0.6 nM (CD28 [6])	CD28 costimulation, FcR Dependent Cross-Linking (No PD-L1), 50 nM (CD28 [6])	PD-L1-Dependent CD28 Costimulation, +PD-L1, 0.6 nM (CD28 [7]; CHO/OKT3/PD-L1 aAPC, 0.6 nM)	PD-L1-Dependent CD28 Costimulation, +PD-L1, 50 nM (CD28 [7]; CHO/OKT3/PD-L1 aAPC, 50 nM)	PD-L1-Dependent CD28 Costimulation, No PD-L1, 50 nM (CD28 [7]; CHO/OKT3 aAPC, no PD-L1, 50 nM)	PD-L1-Dependent CD28 Costimulation, No PD-L1, […] (CD28 [7]; CHO/OKT3 aAPC, no PD-L1, […])	CD28 costimulation and IL-2 production (Pan T cells)	mice with no detectable tumors (tumor-free) upon completion of the study (MC38 hPD-L1 tumor cells; 100 μg on days 7, 9 and 11, 11 mice per group) [mice]	tumor growth / tumor volume (MC38 hPD-L1 tumor cells; i.p. dosing, compared to Fc control or anti-PD-L1)	tumor-free mice after re-challenge, day 59 (MC38 hPD-L1 tumor cells; [9])	tumor-free mice after re-challenge, day 63 (MC38 hPD-L1 tumor cells; [9])	Average Relative Luminescence Units (CD28 [8])	PD-L1 MFI at 33.3 nM (huPD-L1)
B1	antagonized the binding of CD80 to CTLA-4	resulted in IL-2 secretion in culture supernatants	induced PD-L1 dependent CD28 costimulation in a dose-dependent manner	1439	1348	antagonize or block binding of PD-1 to PD-L1	20884													
B2								1337	1510	529	476	440	417	did not generate significant costimulation and IL-2 production						
B3					411		48010	2119	8685						1	dose-dependent decrease in tumor volumes	1/1	tumor-free	1110 Relative Luminescence Units	7529
